Assay [1] deals with 12 clones that bound to human PRDM14 (monobodies; the members other than Mb(S4) and Mb(S14) are not given). Put plainly: yeast surface display; KD of monobody clones displayed on yeast for hPRDM14.
Assay [2] addresses Mb(hPRDM14_S14) displayed on the yeast surface. The assay is described as above.
For assay [3] the target is unchanged. Put plainly: yeast surface display; monobodies on the yeast surface with 50 nM of hPRDM14 or a homologue.

Bounds are passed on as bounds.

B1: human PRDM14 (residues 238–487) (domain or fragment)
chain: LPQTLDKDSLQLPEGLCLMQTVFGEVPHFGVFCSSFIAKGVRFGPFQGKVVNASEVKTYGDNSVMWEIFEDGHLSHFIDGKGGTGNWMSYVNCARFPKEQNLVAVQCQGHIFYESCKEIHQNQELLVWYGDCYEKFLDIPVSLQVTEPGKQPSGPSEESAEGYRCERCGKVFTYKYYRDKHLKYTPCVDKGDRKFPCSLCKRSFEKRDRLRIHILHVHEKHRPHKCSTCGKCFSQSSSLNKHMRVHSGDR
modifications: biotin (biotin-acceptor tag)
As for B1, the Kd in assay [1] and in assay [2] was below 100 nM throughout. The fold stronger binding than hPRDM6 and hPRDM12 in assay [3] is above 5 fold.

What is called Kd is the concentration at which binding is half-saturated. Lower therefore signals a tighter complex.

Values taken from PMC4749557.
